Data on one protein can be found in publication PMC9507012 (Blood, 2022).

Where “and” joins values, the source holds several entries; their conditions need not be identical. Equal entries are not always repeated.

The stoichiometry N is a count of units in the complex or per binding partner.

This series deals with the molecule itself. Briefly: crystal structure.

B1: MEF2D_(2-95) (N-terminal residues 2-95 of human MEF2D) (domain or fragment, UniProt Q14814 2-95, looked up)
chain: GRKKIQIQRITDERNRQVTFTKRKFGLMKKAYELSVLCDCEIALIIFNHSNKLFQYASTDMDKVLLKYTEYNEPHESRTNADIIETLRKKGFNG
As to B1, the “stoichiometry N” value is 2 and 4.
